Reference: patent US20160304858A1
Primed or numbered codes have the meaning given here. Where no end group is shown, it is not given here. [ ]: non-standard residue; d: D form. The star is where a group is joined. Hpra′ = its azide, alkyne or alkene has reacted where a group follows in round brackets; maleimide‑biotin = maleimide-biotin reagent joined to deprotected Cys; Man9″ = Man9 glycan attached to Hpg by CuAAC click with Man9-azide; Man9(3) = Man9-azide click-glycosylated onto Hpg; For = O=C*

B1: glycopeptide 10F6 (Fixed library, round 10) (peptide)
peptide: For-[Hpra′](Man9(3))L[Hpra′](Man9(3))FIRIYPTR[Hpra′](Man9(3))QYVYHAPLLT[Hpra′](Man9(3))VR[Hpra′](Man9(3))SPTGPLIGSGSLGHHHHHHRDYKDDDDK
B2: glycopeptide 10F2 (Fixed library, round 10), ribosomally translated (peptide)
peptide: For-[Hpra′](Man9″)HPYNTSRTSA[Hpra′](Man9″)[Hpra′](Man9″)AALK[Hpra′](Man9″)QVTD[Hpra′](Man9″)YALALFHRILGSGSLGHHHHHHRDYKDDDDK
B3: glycopeptide 10F12 (Fixed library, round 10) (peptide)
peptide: For-[Hpra′](Man9″)CYVTVIPA[Hpra′](Man9″)N[Hpra′](Man9″)PEARLGIVCH[Hpra′](Man9″)PGIRRGKALYGSGSLGHHHHHHRDYKDDDDK
modifications: not fully specified (bridges); cysteine pairing not given here
B4: glycopeptide 10F5 (Fixed library, round 10) (peptide)
peptide: For-[Hpra′](Man9(3))SPHLPVLLCK[Hpra′](Man9(3))VLNDGRRIVQ[Hpra′](Man9(3))SCELP[Hpra′](Man9(3))VRRSGSGSLGHHHHHHRDYKDDDDK
modifications: cysteine pairing not given here
B5: glycopeptide 10F8 (Fixed library, round 10) (peptide)
peptide: For-[Hpra′](Man9(3))LLK[Hpra′](Man9(3))VDQSRL[Hpra′](Man9(3))PVPGIGVTLH[Hpra′](Man9(3))RSIPYSYLPIGSGSLGHHHHHHRDYKDDDDK
B6: glycopeptide 10F3 (Fixed library, round 10) (peptide)
peptide: For-[Hpra′](Man9(3))DTLHLKQIGG[Hpra′](Man9(3))PNCITQQDVR[Hpra′](Man9(3))TSIPYTYTWPGSGSLGHHHHHHRDYKDDDDK
B7: glycopeptide 10F9 (Fixed library, round 10) (peptide)
peptide: For-[Hpra′](Man9(3))RSTLNSLEYR[Hpra′](Man9(3))QYATEDPRIR[Hpra′](Man9(3))ASIPYTYWWPGSGSLGHHHHHHRDYKDDDDK
B8: glycopeptide 10V1 (Variable library, round 10) (peptide)
peptide: For-[Hpra′](Man9(3))ATKTNCKREKT[Hpra′](Man9(3))DNHVTI[Hpra′](Man9(3))RSIPWYTYRWLPNGSGSLGHHHHHHRDYKDDDDK
B9: glycopeptide 10V9 (Variable library, round 10) (peptide)
peptide: For-[Hpra′](Man9(3))TSIPYTYLNRSLWTNYRVNSWS[Hpra′](Man9(3))SKNVNV[Hpra′](Man9(3))PLGSGSLGHHHHHHRDYKDDDDK
B10: glycopeptide 10V8 (Variable library, round 10) (peptide)
peptide: For-[Hpra′](Man9(3))VLPTIISTNVNPFR[Hpra′](Man9(3))LSIPTYTYL[Hpra′](Man9(3))PITWGEIGSGSLGHHHHHHRDYKDDDDK
B11: glycopeptide 10F5-C10,25S (peptide)
peptide: For-[Hpra′](Man9(3))SPHLPVLLSK[Hpra′](Man9(3))VLNDGRRIVQ[Hpra′](Man9(3))SSELP[Hpra′](Man9(3))VRRSGSGSLGHHHHHHRDYKDDDDK
B12: glycopeptide 10F12-C2,21S (peptide)
peptide: For-[Hpra′](Man9″)SYVTVIPA[Hpra′](Man9″)N[Hpra′](Man9″)PEARLGIVSH[Hpra′](Man9″)PGIRRGKALYGSGSLGHHHHHHRDYKDDDDK
B13: glycopeptide 10F3 -C15S (peptide)
peptide: For-[Hpra′](Man9)DTLHLKQIGG[Hpra′](Man9)PNSITQQDVR[Hpra′](Man9)TSIPYTYTWPGSGSLGHHHHHHRDYKDDDDK

What was measured:
[1] = target: HIV broadly neutralizing antibody 2G12; experiment: BLI curve fit, 1 nM 2G12
[2] = target: HIV broadly neutralizing antibody 2G12; experiment: BLI curve fit, 0.5 nM 2G12
[3] = target: HIV broadly neutralizing antibody 2G12; experiment: BLI (BLItz), glycopeptide on streptavidin sensor, 2G12 in solution, global 1:1 fit
[4] = target: HIV broadly neutralizing antibody 2G12; experiment: BLI curve fit, 8 nM 2G12
[5] = target: HIV broadly neutralizing antibody 2G12; experiment: BLI curve fit, 2 nM 2G12
[6] = target: HIV broadly neutralizing antibody 2G12; experiment: BLI curve fit, 4 nM 2G12
[7] = target: HIV broadly neutralizing antibody 2G12; experiment: BLI curve fit, 32 nM 2G12
[8] = target: HIV broadly neutralizing antibody 2G12; experiment: BLI curve fit, 16 nM 2G12
[9] = target: HIV broadly neutralizing antibody 2G12; experiment: radiolabelled glycopeptide with 2G12 in solution, protein G bead capture, scintillation counting
[10] = target: HIV broadly neutralizing antibody 2G12; experiment: radiolabelled glycopeptide with 2G12, protein G bead capture; low end tied to 10F6 by Table 4
[11] = target: HIV broadly neutralizing antibody 2G12; experiment: radiolabelled glycopeptide with 2G12, protein G bead capture (end tied by Table 4)
[12] = target: HIV broadly neutralizing antibody 2G12; experiment: radiolabelled glycopeptide with 2G12, protein G bead capture; high end tied to 10V8 by Table 4

Row | Binder | Fmax [9] [%] | Kd [9] [nM] | other results
1 | For-[Hpra′](Man9″)HPYNTSRTSA[Hpra′](Man9″)[Hpra′](Man9″)AALK[Hpra′](Man9″)QVTD[Hpra′](Man9″)YALALFHRILGSGSGC(maleimide‑biotin)A [biotinylated synthetic 10F2 glycopeptide 3] | – | – | Req [1]: 0.682; Req [2]: 0.481; Kd [3]: 1.37 nM; koff [3]: 0.000151 s⁻¹; kon [3]: 111000 M⁻¹ s⁻¹; Req [4]: 1.37; Req [5]: 0.987; Req [6]: 1.26; Req [7]: 1.39; Req [8]: 1.41
2 | B1 | 87 | 0.54 | Kd [10]: 0.5 to 5 nM; Kd [11]: 0.5 to 0.6 nM
3 | B2 | 86 | 0.6 | Kd [11]: 0.5 to 0.6 nM
4 | B3 | 90 | 0.77 | –
5 | B4 | 93 | 0.97 | –
6 | B5 | 97 | 2.6 | –
7 | B6 | 100 | 3 | –
8 | B7 | 86 | 3.1 | –
9 | B8 | 97 | 1.9 | –
10 | B9 | 85 | 3.9 | –
11 | B10 | 94 | 4.6 | Kd [12]: 0.5 to 5 nM
12 | B11 | 94 | 2.5 | –
13 | For-[Hpra′](Man9(3))RSIPWYTYRWLPNGSGSLGHHHHHHRDYKDDDDK [glycopeptide 10V1-Δ9] | 20 | 7.5 | –
14 | For-[Hpra′](Man9(3))[Hpra′](Man9(3))AALK[Hpra′](Man9(3))QVTD[Hpra′](Man9(3))YALALFHRILGSGSLGHHHHHHRDYKDDDDK [glycopeptide 10F2-Δ11] | 70 | 0.89 | –
15 | For-[Hpra′](Man9(3))PNCITQQDVR[Hpra′](Man9(3))TSIPYTYTWPGSGSLGHHHHHHRDYKDDDDK [glycopeptide 10F3-Δ11] | 32 | 25 | –
16 | For-[Hpra′](Man9(3))VLNDGRRIVQ[Hpra′](Man9(3))SCELP[Hpra′](Man9(3))VRRSGSGSLGHHHHHHRDYKDDDDK [glycopeptide 10F5-Δ11] | 17 | > 200 | –
17 | B12 | 90 | 186 | –
18 | B13 | 63 | 2.91 | –
